According to doi:10.1101/2024.03.29.587195 (bioRxiv, 2024):
Where “and” joins values, the source holds several entries; their conditions need not be identical. Equal values may be shown once.

Molecular target: the molecule itself
Test: cryo-EM structure

B1: CoaXMtb, untagged, recombinant (cryo-EM sample) (natural protein)
chain: MLLAIDVRNTHTVVGLLSGMKEHAKVVQQWRIRTESEVTADELALTIDGLIGEDSERLTGTAALSTVPSVLHEVRIMLDQYWPSVPHVLIEPGVRTGIPLLVDNPKEVGADRIVNCLAAYDRFRKAAIVVDFGSSICVDVVSAKGEFLGGAIAPGVQVSSDAAAARSAALRRVELARPRSVVGKNTVECMQAGAVFGFAGLVDGLVGRIREDVSGFSVDHDVAIVATGHTAPLLLPELHTVDHYDQHLTLQGLRLVFERNLEVQRGRLKTAR
stoichiometry N: 6 and 4
